The RNAGym collection of RNA variant scans (doi:10.1073/pnas.2313332121)
This sample holds only a part of the variants without activity.

B1: TPR 5TU (parent)
chain: GGAUCUUCUCGAUCUAACAAAAAAGACAAAUCUGCCACAAAGCUUGAGAGCAUCUUCGGAUGCAGAGGCGGCAGCCUUCGGUGGCGCGAUAGCGCCAACGUUCUCAACUAUGACACGCAAAACGCGUGCUCCGUUGAAUGGAGUUUAUCAUG

Variants of: B1
Experiment: polymerase ribozyme fitness, log enrichment relative to wild type (log ratio); higher = more active; in vitro selection for triplet polymerase activity
Outline: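 Fitness is a logarithmic measure of how a genotype enriched relative to the wild type, with replicate averages weighted by inverse variance. The logarithm uses base 2, and enrichment came from Illumina sequencing of input and output libraries. Those libraries were PCR-built, transcribed mutants of each subunit of a heterodimeric triplet polymerase ribozyme, passed through one triplicate in vitro selection round that included frozen incubation at −7 °C, gel excision of extended constructs and streptavidin-bead capture. Genotypes were kept only if they had ≥10 input reads and ≥1 read per output.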

Variant	polymerase ribozyme fitness (log ratio)
A3G C8G A30G G48C A64C C87G A137G	≤ -4.2
A3U C87G	-3.94
A3U C87U	-0.956
A3G C18U U56G G94A A110U A138U U139A	≤ -4.2
U4A A26G A49C A107G	≤ -4.2
A3G A21C A60G C76A C85G	-0.977
A3G A29G U82A	≤ -4.2
A3U G48A A89G C95A U102G	≤ -4.2
A3U C10U U61A G65A A66C	≤ -4.2
A3U U31G A40U U53A C85U C95U	-3.06
A3G C18A C93G C123U C131U	-1.32
A3G G86A	-1.52
A3U C8A U13G U90A C93A A107G G143C	≤ -4.2
A3C U6A	-0.461
U4A A21C G80A	-0.338
U4A C5G A22U G25U A30U C63U A66C G143U	≤ -4.2
U4A G11A A26C A60G G84U G126U C149G	≤ -4.2
A3U G59U U82A C93A A142C	≤ -4.2
A3G C5G U15C G84U C108U A121U	≤ -4.2
A3U A52G C96G C131U	-0.0465
U4A C18U A64C G68A C79G	≤ -4.2

Variant	polymerase ribozyme fitness (log ratio)
A3G A20U C27G G42A U56A U77G G86A G117U G133C	≤ -4.2
A3G C10A A12G G59U A66G C72G C85U	≤ -4.2
A3G U31G G50A C95G C118G A138C U146A G152U	≤ -4.2
A3U C36U	-2.21
A3U C36A G42C C87A A89G G100C	≤ -4.2
U4A G83C G94U U148G	≤ -4.2
A3U U56C C87U A89G U101G	-2.52
A3G U13C A98U A107U	-4
U4A	-0.014
A3G U4A U53C G59U U61A G71C C85A	≤ -4.2
A3U C5G U7C A30C C36U U55A A60G C75U C87G U101A A119C C123G G143U	≤ -4.2
A3U G80U	-0.722
A3G G94U C103U U127C U134C G136A	-3.9
U4A G84A	-0.288
A3U A91C	-3.34
A3G U44G C57A G59U G68C C87G	≤ -4.2
A3U C85U C96U C108G G140C	≤ -4.2
A3C G88C	-4.14
A3U A47C C93U C118U	-2.05
A3U A20U G50C	≤ -4.2
A3U A73G G86U C129A A137G	≤ -4.2

Variant	polymerase ribozyme fitness (log ratio)
A3G G11A C32U C85G C87A G124U	≤ -4.2
A3G C5G G84A G88A	-3.09
A3G U13G U144C	0.104
A3U C5G C18U U31A C76U G94U	-1.46
A3G C14U G42C G59A C96U A122U U146C	≤ -4.2
A3C U101G C105U A138C	-4.17
U4A C103A	-2.38
A3U C85A	-1.48
U4A C10U A17G A21C C43U G92A C105A G124C	≤ -4.2
A3G C14U G34A G48A C85A G126U G136A U144G	≤ -4.2
A3G A41U C96U	-1.56
U4A G11C A41U G50C G58A G59U U82C C87U G92U G140A	≤ -4.2
A3G U15A U90C G94U G124A C125U	≤ -4.2
A3U U56A	-1
A3U A28C U55G U56G C63G G86C A91C	≤ -4.2
U4A A22U C63U G67A C75A G94A C96U	≤ -4.2
A3U C114U C118G A137C G141C	≤ -4.2
A3G A73U A121U	-0.51
A3G C27U C51A G59A C85U G88A A115U G141A	≤ -4.2
U4A C36A G48C G86A	≤ -4.2
U4A A19U A24U C35A C57G A60C U101G	≤ -4.2

Variant	polymerase ribozyme fitness (log ratio)
A3G G83A G86U C118U	-3.29
U4A U15G A91C C114U C125A	≤ -4.2
U4A C8U A24C C96U	≤ -4.2
U4A C8U C108G G140C	≤ -4.2
A3U U82G U104G	-1.04
A3U A16C A60G C87A U102G C108G U127A U145G	≤ -4.2
A3G A23U C85A A106U G133U G143U	≤ -4.2
A3U U4A C5U C14G A16U A30C G83U G100A	≤ -4.2
A3U C8U C96U	-1.89
A3U C8U C27A A28C C51A A52C C54A C93U C103G C108G A115C C118A U135A A142U	≤ -4.2
A3U U4A A16U U31A C85U G88A C125U U146G	≤ -4.2
A3U C96G	-1.47
A3U C96A	-0.199
A3U C57A	-0.997
A3U C57U	0.223
A3U A21C C69A C76A G86A A89G A122G	≤ -4.2
A3G A12C A39G A97U G133A G143C	≤ -4.2
U4A A28U C93U A97U C105G G126A G136U	≤ -4.2
U4A G48A C85A C93A A147C	≤ -4.2
U4A G59A	-1.06
A3U A49U U55C A91U	≤ -4.2
